Tests used:
[1] = test system: hippocampal slice preparations; assay: Aβ42-induced neurotoxicity in hippocampal slice preparations
[2] = target: Aβ42 (Homo sapiens, UniProt P05067); assay: Aβ42 oligomer generation; type: biochemical
[3] = test system: App^NL-G-F and App^NL-F mice; details: mouse, in vivo, iv
Procedure: After the end of 10-12 weeks of treatment, Bri2 BRICHOS amounts in the CNS were analysed.
Representative sections (A,D) were double stained with anti-Bri2 BRICHOS antibody (red/pink color) and 82E1 anti-Aβ antibody (green color) counterstained with hematoxylin Mayer (blue color) in rh Bri2 BRICHOS R221E or PBS treated App^NL-G-F and App^NL-F mice. Histograms represents mean intensity of Bri2 BRICHOS in hippocampus (B,E) and cortex (C,F) of App^NL-G-F (B,C) and App^NL-F (E,F) mice. Data are shown as mean±SEM (n=3-4 mice/group, 4 histological sections from each mouse analyzed). Unpaired parametric two-tailed t-test was used to calculate p-values. Scale bars represents 400 μm (upper four panels in A and D) and 100 μm (lower two panels in A and D). * p<0.05, ** p<0.01, *** p<0.001, **** p<0.0001.

[4] = test system: mice; details: mouse, in vivo
[5] = test system: mouse primary neurons; assay: Uptake into primary neurons in culture, fluorescence microscopy; type: cell-based; details: low nanomolar concentrations in culture medium, 24-48 h
Procedure: The data in FIG. 11A indicate that the fusion protein rh NT-Bri2 BRICHOS is internalized in CNS cells and appears in intracellular vesicles. We studied the intracellular localization in more detail, using primary mouse neurons in culture and the recombinant fusion protein mCherry-Bri2 BRICHOS. Recombinant mCherry-Bri2 BRICHOS was added to the culture medium at low nanomolar concentrations, and after 24-48 h the neurons were immobilized and visualized under a fluorescence microscope.

Sequence of Aβ42 (P05067 672-713 limits assumed): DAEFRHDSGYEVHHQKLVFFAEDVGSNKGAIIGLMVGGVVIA

Row | Substance | effect on Aβ42-induced neurotoxicity [1] | effect on Aβ42 oligomer generation [2] | overall Bri2 BRICHOS staining (mean intensity, hippocampus and cortex) versus PBS [3] | BBB passage [4] | uptake into primary neurons [5]
1 | Bri2 BRICHOS R221E monomers: rh Bri2 BRICHOS mutated R221E so that the monomer is stabilised (SEQ ID NO: 13) | alleviates Aβ42-induced neurotoxicity | selectively reduces Aβ42 oligomer generation | significant increase | passes the BBB in mice and shows a trend towards higher passage than the wildtype protein | –
2 | mCherry: control: ca 30 kDa fluorescent protein derived from sea anemones [reference compound] | – | – | – | – | not taken up to any detectable level
